According to publication PMC8399232, “Soy Isoflavones Inhibit Both GPIb-IX Signaling and αIIbβ3 Outside-In Signaling via 14-3-3ζ in Platelet” (Molecules, 2021):

Target: T1, integrin β3 (endogenous, platelets) (mouse (endogenous in platelets), UniProt O54890 26-787)
T1 construct: integrin β3 endogenous in platelets, precipitated with an anti-integrin β3 antibody; platelets were prepared from mice; In platelets β3 stands in the integrin αIIbβ3; also called platelet integrin β3; β3 integrin; source: endogenous, platelet lysate (NP-40 lysis buffer)
T1 sequence (looked up): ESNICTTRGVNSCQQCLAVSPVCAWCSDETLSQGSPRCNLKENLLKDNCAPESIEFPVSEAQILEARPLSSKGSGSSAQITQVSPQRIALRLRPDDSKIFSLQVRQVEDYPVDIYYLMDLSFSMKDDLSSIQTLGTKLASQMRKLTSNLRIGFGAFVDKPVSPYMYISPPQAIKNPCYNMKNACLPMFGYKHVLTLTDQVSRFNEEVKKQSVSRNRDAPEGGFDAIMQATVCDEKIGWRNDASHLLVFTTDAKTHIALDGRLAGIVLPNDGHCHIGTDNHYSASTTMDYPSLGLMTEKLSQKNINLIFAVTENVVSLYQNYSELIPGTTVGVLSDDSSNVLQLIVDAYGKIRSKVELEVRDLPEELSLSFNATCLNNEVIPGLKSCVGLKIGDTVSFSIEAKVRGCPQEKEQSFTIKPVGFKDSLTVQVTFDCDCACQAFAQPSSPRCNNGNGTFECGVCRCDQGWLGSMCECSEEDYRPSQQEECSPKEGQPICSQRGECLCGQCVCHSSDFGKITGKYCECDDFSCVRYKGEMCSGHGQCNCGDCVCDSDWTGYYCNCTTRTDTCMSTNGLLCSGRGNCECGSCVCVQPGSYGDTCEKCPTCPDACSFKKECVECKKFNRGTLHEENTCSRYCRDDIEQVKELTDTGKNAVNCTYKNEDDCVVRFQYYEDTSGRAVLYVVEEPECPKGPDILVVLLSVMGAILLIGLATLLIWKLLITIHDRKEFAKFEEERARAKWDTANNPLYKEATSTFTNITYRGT
Test: co-IP; platelets pretreated with 0.1 % DMSO, 100 μM isoflavones or 3 μM SQ29548, stimulated with 0.04 U/mL thrombin, lysed in NP-40 lysis buffer; precipitated with integrin β3 antibody and protein A magnetic beads overnight at 4 °C; western blot
Settings: partners not purified

B1: 14-3-3ζ (endogenous, platelets) (natural protein, mouse (endogenous in platelets), UniProt P63101 1-245, looked up)
chain: MDKNELVQKAKLAEQAERYDDMAACMKSVTEQGAELSNEERNLLSVAYKNVVGARRSSWRVVSSIEQKTEGAEKKQQMAREYREKIETELRDICNDVLSLLEKFLIPNASQPESKVFYLKMKGDYYRYLAEVAAGDDKKGIVDQSQQAYQEAFEISKKEMQPTHPIRLGLALNFSVFYYEILNSPEKACSLAKTAFDEAIAELDTLSEESYKDSTLIMQLLRDNLTLWTSDTQGDEAEAGEGGEN
notes: 14-3-3ζ endogenous in platelets; platelets were prepared from mice; The methods tell of platelets prepared from wild type and GPIbα deficient mice only; the species is not repeated for the co-immunoprecipitation; source: endogenous, platelet lysate (NP-40 lysis buffer)
With B1 the “fold increase of co-precipitated 14-3-3ζ on platelet activation against resting platelets” value was 2.7 fold.
